Assay results as given in patent US10208288B2, “Differentiation of human embryonic stem cells into pancreatic endocrine cells” (Janssen Biotech, Inc., priority 2012, dated 2019).

Tested on: cells of the human embryonic stem cell line H1 differentiated to stage 5
Assay: Immunostaining for insulin protein expression at the end of Stage 5
Assay type: cell-based
Settings: 50 or 100 ng/ml for three days at stage 5, immunostaining vs control; FIG. 2, FIG. 3
Description: Cells of the human embryonic stem cell line H1 (hESC H1, passage 40) were seeded as single cells at 1×10^5 cells/cm^2 on MATRIGEL™ (1:30 dilution; BD Biosciences, NJ)-coated dishes in mTeSR®1 media supplemented with 10 μM of Y27632. Forty-eight hours post seeding, cultures were washed in incomplete PBS (phosphate buffered saline without Mg or Ca). Cultures were differentiated into pancreatic endoderm/endocrine lineages as follows: • a) Stage 1 (Definitive Endoderm (DE)—3 days): Cells were cultured for one day in stage 1 media (see Example 1, above). Cells were then cultured for an additional day in MCDB-131 medium supplemented with 0.1% fatty acid-free BSA, 0.0012 g/ml sodium bicarbonate, 1× GlutaMax™, 4.5 mM D-Glucose, 100 ng/ml GDF8, and 0.1 μM MCX compound. […]

B1: Ephrin-A4: Ephrin ligand protein, R & D Systems catalogue number 369-EA (protein, UniProt P52798 26-170, looked up)
Ephrin-A4: LRHVVYWNSSNPRLLRGDAVVELGLNDYLDIVCPHYEGPGPPEGPETFALYMVDWPGYESCQAEGPRAYKRWVCSLPFGHVQFSEKIQRFTPFSLGFEFLPGETYYYISVPTPESSGQCLRLQVSVCCKERKSESAHPVGSPGES
protein expression of insulin: significantly enhanced
